A short description of the series: self-splicing fitness, log relative to wild type (ln ratio); higher = more splicing; Tetrahymena group I intron in knt gene, E. coli kanamycin selection, DiMSum; sequences stand for … in CUCUCU…GGAGGGAAAAGUUAUCAGGCAUGCACCUGGUAGCUAGUCUUUAAACCAAUAGAUUGCAUCGGUUUAAAAGGCAAGACCGUCAAAUUGCGGGAAAGGGGUCAACAGCCGUUCAGUACCAAGUCUCAGGGGAAACUUUGAGAUGGCCUUGCAAAGGGUAUGGUAAUAAGCUGACGGACAUGGUCCUAACCACGCAGCCAAGUCCUAAGUCAACAGAUCUUCUGUUGAUAUGGAUGCAGUUCACAGACUAAAUGUCGGUCGGGGAAGAUGUAUUCUUCUCAUAAGAUAUAGUCGGACCUCUCCUUAAUGGGAGCUAGCGGAUGAAGUGAUGCAACACUGGAGCCGCUGGGAACUAAUUUGUAUGCGAAAGUAUAUUGAUUAGUUUUGGAGUACUCGUGGUCG
Summed up: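 DiMSum derived fitness as the error-weighted combination of fold changes across replicates, kanamycin versus no kanamycin, normalised to wild type. E. coli BL21(DE3) held the library, which randomised all eight P1ex-region intron nucleotides within the knt kanamycin-resistance gene on pET-22b(+). Six replicate transformations grew overnight at 37°C or 30°C on LB agar with or without 25 μg/mL kanamycin, also containing 100 μg/mL carbenicillin, 50 μM IPTG and 0.2% rhamnose, and pooled colonies were amplicon-sequenced on an Illumina HiSeq 2500.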

62 sequences from the supplement of paper PMC7877785 can be followed below.

± gives the uncertainty stated by the source.

As for GGCGAGCAAUAUUACGUCAU, the “self-splicing fitness (ln)” value is -2.45 ± 0.14 (30 °C) and -1.76 ± 0.11 (37 °C).

In the case of ACUAAGCAAUAUUACGCCUU, the “self-splicing fitness (ln)” value runs as follows: (30 °C) -1.09 ± 0.082; (37 °C) -0.381 ± 0.11.

Consider GAAUAGCAAUAUUACGCCGC, for which the “self-splicing fitness (ln)” value (37 °C) was -1.45 ± 0.43.

Regarding CAAAAGCAAUAUUACGGAAU, the “self-splicing fitness (ln)” value by setting is: (30 °C) -3.21 ± 0.21; (37 °C) -2.56 ± 0.17.

Take UAAUAGCAAUAUUACGCAAU: the “self-splicing fitness (ln)” value reads like this: (30 °C) -3.5 ± 0.23; (37 °C) -2.4 ± 0.26.

In the case of UAUGAGCAAUAUUACGGGGA, the “self-splicing fitness (ln)” value (30 °C) was -2.94 ± 0.39.

On to GUUAAGCAAUAUUACGAUAG, for which, for the setting “37 °C”, the “self-splicing fitness (ln)” value is -2.07 ± 0.34.

Regarding CCAUAGCAAUAUUACGCAAG, the “self-splicing fitness (ln)” value runs as follows: (30 °C) -2.84 ± 0.17; (37 °C) -0.562 ± 0.13.

Regarding CUGCAGCAAUAUUACGCACU, the “self-splicing fitness (ln)” value is, setting by setting: (30 °C) -3.45 ± 0.2; (37 °C) -0.783 ± 0.17.

In the case of UCCGAGCAAUAUUACGUUUG, the “self-splicing fitness (ln)” value reads like this: (30 °C) -3.31 ± 0.2; (37 °C) -3.36 ± 0.25.

As to GGAGAGCAAUAUUACGUGAA, the “self-splicing fitness (ln)” value by setting is: (30 °C) -0.689 ± 0.2; (37 °C) -2.2 ± 0.4.

On to CCAUAGCAAUAUUACGCCAG, for which the “self-splicing fitness (ln)” value is -1.94 ± 0.14 (30 °C) and -0.423 ± 0.14 (37 °C).

CCACAGCAAUAUUACGCCCG: the “self-splicing fitness (ln)” value is, setting by setting: (30 °C) -0.882 ± 0.078; (37 °C) -0.0155 ± 0.09.

For UUACAGCAAUAUUACGCACC, the “self-splicing fitness (ln)” value runs as follows: (30 °C) -2.69 ± 0.21; (37 °C) -0.981 ± 0.23.

With CUCGAGCAAUAUUACGCCUU, the “self-splicing fitness (ln)” value is -2.45 ± 0.15 (30 °C) and -2.72 ± 0.37 (37 °C).

With GGACAGCAAUAUUACGUUUC, the “self-splicing fitness (ln)” value (30 °C) is -3.16 ± 0.28 and the “self-splicing fitness (ln)” value (37 °C) is -1.82 ± 0.32.

As to AGCUAGCAAUAUUACGCGUU, the “self-splicing fitness (ln)” value reads like this: (30 °C) -2.62 ± 0.091; (37 °C) -2.11 ± 0.12.

Regarding AGUAAGCAAUAUUACGGUGA, the “self-splicing fitness (ln)” value was -2.73 ± 0.17 (30 °C) and -1.21 ± 0.14 (37 °C).

UCUCAGCAAUAUUACGGACA: the “self-splicing fitness (ln)” value runs as follows: (30 °C) -0.71 ± 0.099; (37 °C) -0.369 ± 0.1.

In the case of UGAGAGCAAUAUUACGCAAG, the “self-splicing fitness (ln)” value by setting is: (30 °C) -3.21 ± 0.32; (37 °C) -2.74 ± 0.44.

With CCCUAGCAAUAUUACGUAAU, the “self-splicing fitness (ln)” value was -3.5 ± 0.22 (30 °C) and -2.83 ± 0.25 (37 °C).

Consider CUGCAGCAAUAUUACGAUUA, for which the “self-splicing fitness (ln)” value was -3.35 ± 0.28 (30 °C) and -2.32 ± 0.16 (37 °C).

As to GGGAAGCAAUAUUACGUCGC, the “self-splicing fitness (ln)” value by setting is: (30 °C) -1.83 ± 0.16; (37 °C) -0.302 ± 0.17.

Regarding GAGAAGCAAUAUUACGCUUA, the “self-splicing fitness (ln)” value is, setting by setting: (30 °C) -2.41 ± 0.12; (37 °C) -1.24 ± 0.13.

For the sequence AUCAAGCAAUAUUACGACCU, the “self-splicing fitness (ln)” value was -0.924 ± 0.11 (30 °C) and -0.336 ± 0.1 (37 °C).

In the case of UUGUAGCAAUAUUACGUUUU, the “self-splicing fitness (ln)” value runs as follows: (30 °C) -2.52 ± 0.24; (37 °C) -1.98 ± 0.17.

Take UGCCAGCAAUAUUACGGCUC: the “self-splicing fitness (ln)” value reads like this: (30 °C) -2.89 ± 0.21; (37 °C) -1.48 ± 0.23.

As for AUGAAGCAAUAUUACGGCAA, the “self-splicing fitness (ln)” value (30 °C) is 0.00287 ± 0.12 and the “self-splicing fitness (ln)” value (37 °C) amounted to 0.0978 ± 0.14.

Consider CUAUAGCAAUAUUACGGCUC, for which the “self-splicing fitness (ln)” value reads like this: (30 °C) -3.46 ± 0.36; (37 °C) -2.47 ± 0.48.

Regarding GUAGAGCAAUAUUACGGGAA, the “self-splicing fitness (ln)” value (30 °C) was -3.56 ± 0.32 and the “self-splicing fitness (ln)” value (37 °C) was -2.35 ± 0.26.

For CUCGAGCAAUAUUACGCAGA, the “self-splicing fitness (ln)” value is -2.04 ± 0.35 (30 °C) and -0.967 ± 0.17 (37 °C).

For the sequence CAAUAGCAAUAUUACGCGUU, the “self-splicing fitness (ln)” value (30 °C) was -2.98 ± 0.09 and the “self-splicing fitness (ln)” value (37 °C) is -2.42 ± 0.1.

UUGCAGCAAUAUUACGCCCU: the “self-splicing fitness (ln)” value (30 °C) worked out at 0.32 ± 0.46.

For UCACAGCAAUAUUACGUACC, the “self-splicing fitness (ln)” value by setting is: (30 °C) -2.45 ± 0.23; (37 °C) -2.37 ± 0.23.

Turning to GAGCAGCAAUAUUACGGCCA, the “self-splicing fitness (ln)” value (30 °C) is -0.255 ± 0.097 and the “self-splicing fitness (ln)” value (37 °C) was -0.361 ± 0.14.

Consider AUAGAGCAAUAUUACGAACA, for which the “self-splicing fitness (ln)” value reads like this: (30 °C) -1.9 ± 0.16; (37 °C) -1.09 ± 0.25.

Regarding CCCGAGCAAUAUUACGUAUC, the “self-splicing fitness (ln)” value was -1.94 ± 0.17 (30 °C) and -3.67 ± 0.36 (37 °C).

For UCUUAGCAAUAUUACGGUAG, the “self-splicing fitness (ln)” value (37 °C) is -2.11 ± 0.41.

AAUGAGCAAUAUUACGCUAU: the “self-splicing fitness (ln)” value is -2.84 ± 0.28 (30 °C) and -1 ± 0.16 (37 °C).

On to AUGCAGCAAUAUUACGCUGC, for which the “self-splicing fitness (ln)” value is, setting by setting: (30 °C) -4.54 ± 0.2; (37 °C) -3.94 ± 0.19.

For the sequence CUAAAGCAAUAUUACGCUGG, the “self-splicing fitness (ln)” value is -3.74 ± 0.22 (30 °C) and -2.11 ± 0.25 (37 °C).

For CCCUAGCAAUAUUACGUUGG, the “self-splicing fitness (ln)” value is -3.97 ± 0.23 (30 °C) and -2.48 ± 0.2 (37 °C).

As for ACUCAGCAAUAUUACGCACC, the “self-splicing fitness (ln)” value is -1.19 ± 0.094 (30 °C) and 0.495 ± 0.11 (37 °C).

ACAUAGCAAUAUUACGAGUG: the “self-splicing fitness (ln)” value by setting is: (30 °C) -1.16 ± 0.073; (37 °C) -1.05 ± 0.09.

GAACAGCAAUAUUACGCAAA: the “self-splicing fitness (ln)” value was -1.37 ± 0.12 (30 °C) and -0.529 ± 0.11 (37 °C).

For CGACAGCAAUAUUACGAUUA, the “self-splicing fitness (ln)” value runs as follows: (30 °C) -1.99 ± 0.12; (37 °C) -0.873 ± 0.1.

Regarding UUUGAGCAAUAUUACGCCAA, for the setting “37 °C”, the “self-splicing fitness (ln)” value was -1.56 ± 0.27.

As for GCAAAGCAAUAUUACGGUAG, the “self-splicing fitness (ln)” value reads like this: (30 °C) -2.68 ± 0.14; (37 °C) -3.34 ± 0.23.

For ACGUAGCAAUAUUACGCCAG, the “self-splicing fitness (ln)” value was -1.59 ± 0.18 (30 °C) and -2.19 ± 0.45 (37 °C).

As to CGCGAGCAAUAUUACGCUUU, the “self-splicing fitness (ln)” value is, setting by setting: (30 °C) -3.44 ± 0.33; (37 °C) -0.916 ± 0.24.

Take AUCAAGCAAUAUUACGAAUC: the “self-splicing fitness (ln)” value reads like this: (30 °C) -4.76 ± 0.41; (37 °C) -2.78 ± 0.3.

For ACUCAGCAAUAUUACGGGUC, the “self-splicing fitness (ln)” value is, setting by setting: (30 °C) -2.95 ± 0.16; (37 °C) -2.2 ± 0.17.

Take AUGGAGCAAUAUUACGUAGC: the “self-splicing fitness (ln)” value (37 °C) was -1.93 ± 0.3.

On to CCGCAGCAAUAUUACGUCAA, for which the “self-splicing fitness (ln)” value reads like this: (30 °C) -4.05 ± 0.33; (37 °C) -3.04 ± 0.27.

Regarding GCACAGCAAUAUUACGAUCC, the “self-splicing fitness (ln)” value runs as follows: (30 °C) -0.381 ± 0.11; (37 °C) -0.0747 ± 0.16.

As for UGGAAGCAAUAUUACGCAGG, the “self-splicing fitness (ln)” value reads like this: (30 °C) -3.1 ± 0.42; (37 °C) -1.47 ± 0.4.

Take GCCGAGCAAUAUUACGUUCG: the “self-splicing fitness (ln)” value reads like this: (30 °C) -2.72 ± 0.26; (37 °C) -2 ± 0.34.

Take GUAUAGCAAUAUUACGGUUC: the “self-splicing fitness (ln)” value runs as follows: (30 °C) -1.22 ± 0.1; (37 °C) -0.0871 ± 0.12.

Consider GCGAAGCAAUAUUACGAACU, for which the “self-splicing fitness (ln)” value was -0.877 ± 0.16 (30 °C) and -0.787 ± 0.17 (37 °C).

Regarding AACCAGCAAUAUUACGAAUG, the “self-splicing fitness (ln)” value is, setting by setting: (30 °C) -2.22 ± 0.089; (37 °C) -1.89 ± 0.083.

For UGAUAGCAAUAUUACGCCGU, the “self-splicing fitness (ln)” value was -4.2 ± 0.43 (30 °C) and -2.01 ± 0.2 (37 °C).

With AAACAGCAAUAUUACGUCGG, the “self-splicing fitness (ln)” value reads like this: (30 °C) -2.8 ± 0.11; (37 °C) -1.13 ± 0.11.
